“And” between values parts separate entries of the source, which are not always exact repeats. Equal entries are not always repeated.
Molecular target: S318-510 fragment (amino acids 318-510 of the S protein of SARS-CoV strain Frankfurt 1) (SARS-CoV strain Frankfurt 1, UniProt P59594 318-510)

B1: CR03-014 (antibody, V domains shown)
VH: EVQLVESGGGLVQPGGSLRLSCAASGFTFSDHYMDWVRQAPGKGLEWVGRTRNKANSYTTEYAASVKGRFTISRDDSKNSLYLQMNSLKTEDTAVYYCARGISPFYFDYWGQGTLVTVSS
VL: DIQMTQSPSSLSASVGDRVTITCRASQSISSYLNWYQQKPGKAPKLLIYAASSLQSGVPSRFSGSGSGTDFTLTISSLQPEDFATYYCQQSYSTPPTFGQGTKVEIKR
- Kd: 16.3 nM and 14.8 nM
